Source: ChEMBL document CHEMBL2074325, “The multidrug resistance protein 5 functions as an ATP-dependent export pump for cyclic nucleotides” (J Biol Chem, 2000)

System: [H][C@@]12COP(=O)(O)O[C@@]1([H])[C@@H](O)[C@H](n1cnc3c(=O)[nH]c(N)nc31)O2
Assay: TP_TRANSPORTER: uptake in membrane vesicles from MRP5-expressing V79 cells
Type: functional, cell membranes, Membrane vesicle

ATP-binding cassette sub-family C member 5 (Homo sapiens)
Km: 2.1 µM
